Here are results for one substance from PMC4351431, “Pharmacokinetics of diluted (U20) insulin aspart compared with standard (U100) in children aged 3–6 years with type 1 diabetes during closed-loop insulin delivery: a randomised clinical trial” (Diabetologia, 2014).

Data set [1] can be described thus: Insulin aspart pharmacokinetics during closed-loop insulin delivery, two-compartment modelling of plasma insulin. Further details: species or system human. To be noted: in vivo. As for the experimental part:
Children were admitted in the afternoon on two study visits, 2–6 weeks apart, at the Wellcome Trust Clinical Research Facility, Addenbrooke’s Hospital, Cambridge, to undergo closed-loop insulin delivery from 17:00 hours until 8:00 hours the following morning. On both occasions, the children consumed identical evening meals at 17:00 hours [44 ± 12 g carbohydrate] and optional bedtime snacks [6 ± 7 g carbohydrate]. Standard pump bolus calculators were used to calculate meal insulin boluses and basal rates on the insulin pump (Animas 2020, Johnson & Johnson, PA, USA) were adjusted every 15 min according to the output of a model predictive control algorithm informed by real-time continuous glucose monitoring values (Dexcom G4, Dexcom, CA, USA). Standard strength (100 U/ml) insulin aspart (Novo Nordisk, Bagsvaerd, Denmark) was infused at one visit and diluted aspart (0.9% saline [154 mmol/l NaCl] at 1:5 ratio, 20 U/ml) was administered at the other; the order of the two interventions was random. […]
Venous blood samples were taken at −30, 0, 30, 60, 90, 120, 180, 240, 300, 360, 420, 480, 540, 600, 660, 720, 780, 840 and 900 min relative to 17:00 hours for measuring the plasma insulin concentration. […] Plasma insulin was measured using an immunochemiluminometric assay (Invitron, Monmouth, UK; intra-assay CV 4.7%, interassay CV 7.2–8.1%; 100% cross reactivity with insulin aspart). Fasting C-peptide levels were measured at plasma glucose values above 6 mmol/l by ELISA (Mercodia, Uppsala, Sweden).
Aspart pharmacokinetics was assessed using a two-compartment model measuring the time-to-peak of plasma insulin concentration (t max), metabolic clearance rate of insulin (MCR I), and background plasma insulin concentration (ins c). […]
Differences between pharmacokinetic parameters were assessed by paired t test (for normally distributed variables) or the Wilcoxon signed-rank test (for non-normally distributed variables). […] The Spearman’s rank correlation evaluated correlations between pharmacokinetic and demographic indices. […]

On the set-up of data set [2]: method as in PMID 23278690. To be noted: pig, in vivo, sc; cited from earlier work.
The conditions of data set [3]: cited from earlier work; for MCR I / ins c: published literature, closed-loop insulin delivery. An excerpt: Similar estimates of MCR I and ins c were also found in the current study and published literature (1.94 vs 1.68 × 10^−2 vs 1.90 × 10^−2 1/kg/min for MCR I, 29 vs 28 vs 61 pmol/l for ins c). In the present study, MCR I values in the two visits were highly correlated (r = 0.918, p < 0.001), as were the ins c values ...

Read-outs that look alike come from different tables or passages of the source.

As for B28Asp human insulin [insulin aspart], the “mean value of t max in the present study” value in data set [1] (human) is 60.4 min. The substance also came in with an MCR I in the current study in data set [1] of 19.4 mL/min/kg. In data set [1], the “ins c in the current study” value came out at 29 pmol/L. Also, the “effect of concentration on insulin aspart pharmacokinetics” value in data set [2] is “no significant difference between U200, U100 and U20”. Further, the t max in data set [3] (adults with type 1 diabetes, during closed-loop insulin delivery) is recorded as 51 min; in data set [3] (older children with type 1 diabetes, during closed-loop insulin delivery), 66 min; in data set [3] (type 1 diabetes, following insulin bolus injection) it was 49 min. Moreover, the “MCR I” value in data set [3] (ref 7) was 0.0168 kg⁻¹ min⁻¹; in data set [3] (ref 8) it was 0.019 kg⁻¹ min⁻¹. The ins c in data set [3] (ref 7) was 28 pmol/L; in data set [3] (ref 8) it was 61 pmol/L.
